{
  "source": "the supplement of paper PMC9112550",
  "about": "“Optimization of the antimicrobial peptide Bac7 by deep mutational scanning” (BMC Biology, 2022);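 further: peptides expressed intracellularly from a pBAD plasmid library in pooled LB shake-flask culture, induced with 0.3% L-arabinose, DNA abundance read by NGS, three biological replicates, DESeq2 with apeglm shrinkage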",
  "data": [
    {"system": "Escherichia coli TOP10", "experiment": "shrunken log2 fold change of peptide-encoding DNA abundance (4.5 h post-induction vs induction); higher = less antimicrobial activity (less host growth inhibition)", "conditions": "time post-induction: 4.5 h; library: site-saturation at positions 5, 18, 19, 20", "values": [
      {"sequence": "RRIRARPPRLPRPRPRPKPRPRP", "shrunken log2 fold change": 1.9},
      {"sequence": "RRIRSRPPRLPRPRPRPEQNPRP", "shrunken log2 fold change": 0.274},
      {"sequence": "RRIRERPPRLPRPRPRPIANPRP", "shrunken log2 fold change": 0.158},
      {"sequence": "RRIRQRPPRLPRPRPRPMCDPRP", "shrunken log2 fold change": 0.00628},
      {"sequence": "RRIRTRPPRLPRPRPRPRWPPRP", "shrunken log2 fold change": 0.424},
      {"sequence": "RRIRGRPPRLPRPRPRPDHIPRP", "shrunken log2 fold change": 0.199},
      {"sequence": "RRIRSRPPRLPRPRPRPVRRPRP", "shrunken log2 fold change": 0.558},
      {"sequence": "RRIRLRPPRLPRPRPRPTKCPRP", "shrunken log2 fold change": -0.0436},
      {"sequence": "RRIRRRPPRLPRPRPRPEMIPRP", "shrunken log2 fold change": -0.00643},
      {"sequence": "RRIRQRPPRLPRPRPRPYETPRP", "shrunken log2 fold change": -0.427},
      {"sequence": "RRIRVRPPRLPRPRPRPGYVPRP", "shrunken log2 fold change": -0.351},
      {"sequence": "RRIRMRPPRLPRPRPRPFNWPRP", "shrunken log2 fold change": -0.0926},
      {"sequence": "RRIRMRPPRLPRPRPRPFNFPRP", "shrunken log2 fold change": -0.598},
      {"sequence": "RRIRHRPPRLPRPRPRPSENPRP", "shrunken log2 fold change": -0.096},
      {"sequence": "RRIRNRPPRLPRPRPRPRRNPRP", "shrunken log2 fold change": -0.03},
      {"sequence": "RRIRHRPPRLPRPRPRPTIHPRP", "shrunken log2 fold change": -0.552},
      {"sequence": "RRIRGRPPRLPRPRPRPLMGPRP", "shrunken log2 fold change": 0.373},
      {"sequence": "RRIRFRPPRLPRPRPRPPNEPRP", "shrunken log2 fold change": 0.0211},
      {"sequence": "RRIRDRPPRLPRPRPRPHQTPRP", "shrunken log2 fold change": 0.0267},
      {"sequence": "RRIRWRPPRLPRPRPRPARIPRP", "shrunken log2 fold change": 0.176},
      {"sequence": "RRIRARPPRLPRPRPRPPAFPRP", "shrunken log2 fold change": 1.04},
      {"sequence": "RRIRMRPPRLPRPRPRPESSPRP", "shrunken log2 fold change": 0.135},
      {"sequence": "RRIRRRPPRLPRPRPRPRSEPRP", "shrunken log2 fold change": 0.342},
      {"sequence": "RRIRPRPPRLPRPRPRPSSHPRP", "shrunken log2 fold change": -0.417},
      {"sequence": "RRIRGRPPRLPRPRPRPCYGPRP", "shrunken log2 fold change": -0.277},
      {"sequence": "RRIRTRPPRLPRPRPRPDNWPRP", "shrunken log2 fold change": -0.244},
      {"sequence": "RRIRGRPPRLPRPRPRPVCWPRP", "shrunken log2 fold change": 1.16},
      {"sequence": "RRIRTRPPRLPRPRPRPRECPRP", "shrunken log2 fold change": 0.00425},
      {"sequence": "RRIRSRPPRLPRPRPRPFDTPRP", "shrunken log2 fold change": -0.201},
      {"sequence": "RRIRPRPPRLPRPRPRPNCKPRP", "shrunken log2 fold change": -0.048},
      {"sequence": "RRIRWRPPRLPRPRPRPYMEPRP", "shrunken log2 fold change": -0.101},
      {"sequence": "RRIRWRPPRLPRPRPRPAHMPRP", "shrunken log2 fold change": 0.0152},
      {"sequence": "RRIRHRPPRLPRPRPRPGDLPRP", "shrunken log2 fold change": 0.163},
      {"sequence": "RRIRQRPPRLPRPRPRPSVNPRP", "shrunken log2 fold change": -0.642},
      {"sequence": "RRIRRRPPRLPRPRPRPRRGPRP", "shrunken log2 fold change": 0.788},
      {"sequence": "RRIRYRPPRLPRPRPRPRQYPRP", "shrunken log2 fold change": 0.0153},
      {"sequence": "RRIRQRPPRLPRPRPRPNQLPRP", "shrunken log2 fold change": -0.499},
      {"sequence": "RRIRPRPPRLPRPRPRPICAPRP", "shrunken log2 fold change": 0.0637},
      {"sequence": "RRIRWRPPRLPRPRPRPGHPPRP", "shrunken log2 fold change": 0.0932},
      {"sequence": "RRIRNRPPRLPRPRPRPHTFPRP", "shrunken log2 fold change": -0.0139},
      {"sequence": "RRIRERPPRLPRPRPRPRSYPRP", "shrunken log2 fold change": -0.0497},
      {"sequence": "RRIRVRPPRLPRPRPRPRQPPRP", "shrunken log2 fold change": 0.284},
      {"sequence": "RRIRPRPPRLPRPRPRPELDPRP", "shrunken log2 fold change": 0.0969},
      {"sequence": "RRIRSRPPRLPRPRPRPWFSPRP", "shrunken log2 fold change": -0.544},
      {"sequence": "RRIRPRPPRLPRPRPRPCENPRP", "shrunken log2 fold change": -0.0133},
      {"sequence": "RRIRLRPPRLPRPRPRPNGQPRP", "shrunken log2 fold change": 0.00827},
      {"sequence": "RRIRTRPPRLPRPRPRPDNTPRP", "shrunken log2 fold change": -0.191},
      {"sequence": "RRIRERPPRLPRPRPRPADTPRP", "shrunken log2 fold change": -0.262},
      {"sequence": "RRIRARPPRLPRPRPRPEGRPRP", "shrunken log2 fold change": 2.11},
      {"sequence": "RRIRCRPPRLPRPRPRPRGHPRP", "shrunken log2 fold change": 0.071},
      {"sequence": "RRIRSRPPRLPRPRPRPRDKPRP", "shrunken log2 fold change": 0.0811},
      {"sequence": "RRIRMRPPRLPRPRPRPYYFPRP", "shrunken log2 fold change": -0.537},
      {"sequence": "RRIRERPPRLPRPRPRPAKVPRP", "shrunken log2 fold change": -0.182},
      {"sequence": "RRIRDRPPRLPRPRPRPKEYPRP", "shrunken log2 fold change": -0.0963},
      {"sequence": "RRIRDRPPRLPRPRPRPRLWPRP", "shrunken log2 fold change": 0.842},
      {"sequence": "RRIRWRPPRLPRPRPRPISNPRP", "shrunken log2 fold change": -0.0292},
      {"sequence": "RRIRLRPPRLPRPRPRPSGNPRP", "shrunken log2 fold change": -0.111},
      {"sequence": "RRIRCRPPRLPRPRPRPCARPRP", "shrunken log2 fold change": 0.174},
      {"sequence": "RRIRNRPPRLPRPRPRPQNYPRP", "shrunken log2 fold change": -0.846},
      {"sequence": "RRIRCRPPRLPRPRPRPPMQPRP", "shrunken log2 fold change": 0.516},
      {"sequence": "RRIRIRPPRLPRPRPRPKMWPRP", "shrunken log2 fold change": 1.25},
      {"sequence": "RRIRRRPPRLPRPRPRPPHGPRP", "shrunken log2 fold change": 0.596},
      {"sequence": "RRIRQRPPRLPRPRPRPQPNPRP", "shrunken log2 fold change": 0.26},
      {"sequence": "RRIRERPPRLPRPRPRPCAFPRP", "shrunken log2 fold change": -0.315},
      {"sequence": "RRIRWRPPRLPRPRPRPMLQPRP", "shrunken log2 fold change": 0.544},
      {"sequence": "RRIRKRPPRLPRPRPRPCYGPRP", "shrunken log2 fold change": -0.237},
      {"sequence": "RRIRARPPRLPRPRPRPVSEPRP", "shrunken log2 fold change": 0.338},
      {"sequence": "RRIRTRPPRLPRPRPRPVYRPRP", "shrunken log2 fold change": -0.361},
      {"sequence": "RRIRYRPPRLPRPRPRPFTWPRP", "shrunken log2 fold change": -1.51},
      {"sequence": "RRIRIRPPRLPRPRPRPIDKPRP", "shrunken log2 fold change": -0.364},
      {"sequence": "RRIRLRPPRLPRPRPRPCEHPRP", "shrunken log2 fold change": -0.00776},
      {"sequence": "RRIRDRPPRLPRPRPRPQAGPRP", "shrunken log2 fold change": 0.152},
      {"sequence": "RRIRKRPPRLPRPRPRPGQQPRP", "shrunken log2 fold change": 0.0114},
      {"sequence": "RRIRGRPPRLPRPRPRPPLKPRP", "shrunken log2 fold change": 1.03},
      {"sequence": "RRIRKRPPRLPRPRPRPGWTPRP", "shrunken log2 fold change": 0.438}
    ]}
  ]
}
